Experiments:
[1] = biological target: SARS-CoV-2 Spike Trimer (B.1.1.529/Omicron) (SARS-CoV-2) (UniProt P0DTC2); assay: single-molecule force spectroscopy
[2] = biological target: SARS-CoV-2 Spike protein Trimer (Wild type) (SARS-CoV-2) (UniProt P0DTC2); assay: single-molecule force spectroscopy

With “H84T-banana lectin (H84T-BanLec) (from UniProt Q8L5H4 1-141) (designed binder)” the IC50 [1] was 2.6 nM, the IC50 [2] was 5.2 nM and the koff [2] was 0.046 s⁻¹. The kon [2] was 99800 M⁻¹ s⁻¹.

Source: publication PMC9519379 (Cell Reports Medicine, 2022)
